{
  "source": "paper PMC9504841",
  "key": {"[1]": {"target": "MPER_(664–690) peptide (HIV-1)", "test": "ITC; Fab at 3 μM titrated with 12 injections of 40 μM peptide; VP-ITC, 25 °C; 10 mM sodium phosphate pH 7.5, 150 mM NaCl, 10% glycerol, 5 mM DPC; one-site binding model"}, "[2]": {"target": "native HIV-1 Env (PVO, clone 4) on virions (HIV-1)"}},
  "data": [
    {"substance": "10E8-2R Fab (LC S30R/N52R)", "values": [
      {"measurement": "Kd", "setting": "[1]", "value": 46.3, "unit": "nM"},
      {"measurement": "dH", "setting": "[1]", "value": -6.24, "unit": "kcal/mol"},
      {"measurement": "stoichiometry N", "setting": "[1]", "value": 1.17}
    ]},
    {"substance": "10E8-2RF Fab (LC S30R/N52R, HC S100cF)", "values": [
      {"measurement": "Kd", "setting": "[1]", "value": 41.3, "unit": "nM"},
      {"measurement": "dH", "setting": "[1]", "value": -2.3, "unit": "kcal/mol"},
      {"measurement": "stoichiometry N", "setting": "[1]", "value": 1.16},
      {"measurement": "pseudovirus neutralisation (cell-entry inhibition, TZM-bl cells; JRCSF and PVO.4 PsV): potency of the Fab against the parental Fab 10E8-WT", "setting": "[2]", "value": 50, "unit": "fold"}
    ]},
    {"substance": "10E8-WT Fab", "values": [
      {"measurement": "Kd", "setting": "[1]", "value": 32.4, "unit": "nM"},
      {"measurement": "dH", "setting": "[1]", "value": -6.73, "unit": "kcal/mol"},
      {"measurement": "stoichiometry N", "setting": "[1]", "value": 1.12}
    ]}
  ]
}
